Assay results from US20260373285 (published 2026).
Read-outs that look alike come from different tables or passages of the source.

Assays:
human Trop-2 (His) [1] = biological target: T1, human Trop-2 (His) (human, UniProt P09758); assay: SPR
T1 chain: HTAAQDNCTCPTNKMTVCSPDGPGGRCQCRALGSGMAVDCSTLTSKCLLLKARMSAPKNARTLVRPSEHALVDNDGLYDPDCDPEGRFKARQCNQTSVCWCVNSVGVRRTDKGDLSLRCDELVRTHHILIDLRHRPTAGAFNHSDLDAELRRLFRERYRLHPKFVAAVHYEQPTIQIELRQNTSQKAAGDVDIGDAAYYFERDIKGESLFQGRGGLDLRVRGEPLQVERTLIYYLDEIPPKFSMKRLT

human Trop-2 (His) [2] = biological target: T1, human Trop-2 (His); assay: SPR
human Trop-2 (His) [3] = biological target: T1, human Trop-2 (His); assay: SPR
hPD-L1(ECD)-His = hPD-L1(ECD)-His (human, UniProt Q9NZQ7); assay: SPR
human Trop-2 (His) [4] = biological target: T1, human Trop-2 (His); assay: SPR
[5] = biological target: T2, human Trop-2 on MDA-MB-468 cells (human, UniProt P09758); assay: FACS
T2 chain: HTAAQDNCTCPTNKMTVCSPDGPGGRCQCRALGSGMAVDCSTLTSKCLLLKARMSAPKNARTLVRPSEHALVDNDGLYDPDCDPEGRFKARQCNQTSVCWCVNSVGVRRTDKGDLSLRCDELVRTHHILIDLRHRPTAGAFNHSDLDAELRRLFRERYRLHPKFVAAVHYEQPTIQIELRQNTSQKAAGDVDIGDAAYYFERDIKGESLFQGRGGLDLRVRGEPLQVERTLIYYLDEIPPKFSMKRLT

Chain of hPD-L1(ECD)-His (Q9NZQ7 19-238): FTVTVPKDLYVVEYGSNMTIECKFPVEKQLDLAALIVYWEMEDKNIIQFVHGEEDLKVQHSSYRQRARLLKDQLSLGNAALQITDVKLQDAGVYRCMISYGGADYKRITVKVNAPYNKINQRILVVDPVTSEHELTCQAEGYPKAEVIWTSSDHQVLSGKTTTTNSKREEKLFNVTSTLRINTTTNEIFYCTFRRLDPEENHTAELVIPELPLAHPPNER

Row | Binder | Kd (human Trop-2 (His) [3]) [nM] | Kd (human Trop-2 (His) [4]) [nM] | EC50 [5] [µg/mL] | also measured
1 | Trop-2-B-YC-82 (antibody, V domains shown) VH: EVQVVESGGGLVQPGGSLRLSCATSGYIFSNSGMGWYRQAPGKQRELVAAISSGGTTHYADSVKGRFTISRDNAKSTVYLQMNSLKPEDTAVYYCNGDRYYSGTDVFGSWGQGTQVTVSS | – | – | – | Kd (human Trop-2 (His) [1]): 20.1 nM; Kd (human Trop-2 (His) [2]): 20.1 nM
2 | ALGA105M Trop-2 arm (antibody, V domains shown) V domain 1: EVQVVESGGGLVQPGGSLRLSCATSGYIFSNSGMGWYRQAPGKQRELVAAISSGGTTHYADSVKGRFTISRDNSKNTVYLQMNSLRAEDTAVYYCNGDRYYSGTDVFGSWGQGTLVTVSS V domain 2: EVQVVESGGGLVQPGGSLRLSCATSGYIFSNSGMGWYRQAPGKQRELVAAISSGGTTHYADSVKGRFTISRDNSKNTVYLQMNSLRAEDTAVYYCNGDRYYSGTDVFGSWGQGTLVTVSS | 99.4 | – | – | –
3 | ALGA105N Trop-2 arm (antibody, V domains shown) V domain 1: EVQVVESGGGLVQPGGSLRLSCATSGYIFSNSGMGWYRQAPGKQRELVAAISSGGTTHYADSVKGRFTISRDNSKNTVYLQMNSLRAEDTAVYYCNGDRYYSGTDVFGSWGQGTLVTVSS V domain 2: EVQVVESGGGLVQPGGSLRLSCTAPERIFSIYNMGWYRQAPGKEREWVAFLMEGGRIEYADSVKGRFTISRDNAKSTVYLQMNNLNAEDAAVYYCNAGGRSGYWGKGTLVTVSS | 0.668 | – | – | –
4 | ALGA105S-ADC PD-L1 arm (antibody, V domains shown, exatecan drug-linker conjugate; full fusion SEQ67:SEQ68) VH: EVQLVQSGAEVKKPGATVKISCKVSGFNIEDTYIYWVQQAPGKGLEWMGWIDPANYNTKYDPRFQDRVTITVDTSTDTAYMELSSLRSEDTAVYYCARGLRLLMDYWGQGTTVTVSS VL: DIQLTQSPSFLSASVGDRVTITCKASQNVHTSLAWYQQKPGKSPKLLIYLASNRHTGVPSRFSGSGSGTEFTLTISSLQPEDFATYYCLQHWNYPLTFGQGTKLEIKR | – | – | – | Kd (hPD-L1(ECD)-His): 0.764 nM
5 | Trop-2-A-258hz5 (antibody, V domains shown) VH: QVQLVESGGGLVQPGGSLRLSCAASDRTFSEYNADWFRQAPGKEREFVAAITWSGKNTRYADSVKGRFTVSRDNSKNTVYLQMNSLRPADTAVYYCATDRWWAAGNWDGVDYWGQGTLVTVSS | – | 68.9 | 0.279 | –
6 | Trop-2-A-258hz7 (antibody, V domains shown) VH: QVQLVESGGGLVQPGGSLRLSCAASDRTFSEYNADWFRQAPGKEREFVAAITWSGKNTRYADSVKGRFTVSRDNSKNTVYLQMNSLRAEDTAVYYCATDRWWAAGNWDGVDYWGQGTLVTVSS | – | 74.7 | 0.227 | –
7 | ALGA105T Trop-2 arm (antibody, V domains shown) V domain 1: QVQLVQSGGGLVQPGGSLRLSCAASDRTFSEYNADWFRQAPGKEREFVAAITWSGKNTRYADSVKGRFTVSRDNSKNTVYLQMNSLRAEDTAVYYCATDRWWAAGNWDGVDYWGQGTLVTVSS V domain 2: EVQVVESGGGLVQPGGSLRLSCATSGYIFSNSGMGWYRQAPGKQRELVAAISSGGTTHYADSVKGRFTISRDNSKNTVYLQMNSLRAEDTAVYYCNGDRYYSGTDVFGSWGQGTLVTVSS | 2.76 | – | – | –
8 | Trop-2-A-258hz3 (antibody, V domains shown) VH: QVQLVESGGGLVQPGGSLRLSCAASDRTFSEYNADWFRQAPGKEREFVAAITWSGKNTRYADSVKGRFTVSRDNSKNTVYLQMNSLRAEDTAVYYCATDRWWAAGNWSGVDFWGQGTLVTVSS | – | 99.2 | 8.7 | –
9 | Trop-2-A-258hz2 (antibody, V domains shown) VH: QVQLVQSGGGLVQPGGSLRLSCAASDRTFSEYNADWFRQAPGKEREFVAAITWSGKNTRYADSVKGRFTVSRDNSKNTVYLQMNSLRAEDTAVYYCATDRWWAAGNWDGVDYWGQGTLVTVSS | – | 75.5 | 0.176 | –
10 | ALGA105O Trop-2 arm (antibody, V domains shown) V domain 1: EVQVVESGGGLVQPGGSLRLSCATSGYIFSNSGMGWYRQAPGKQRELVAAISSGGTTHYADSVKGRFTISRDNSKNTVYLQMNSLRAEDTAVYYCNGDRYYSGTDVFGSWGQGTLVTVSS V domain 2: QVQLVESGGGLVQAGGSLRLSCAASDRTFSEYNADWFRQAPGKEREFVAAITWSGKNTRYADSVKGRFTVSRDNAKNTVYLQMNSLKPEDTAVYYCATDRWWAAGNWDGVDYWGKGTLVTVSS | 2.22 | – | – | –
